Patent US6610494B2, “Solid-phase activity assay for biologically active substance” (priority 1996, dated 2003)

Test system: biotinylated α-casein
Assay: Solid phase protease activity assay using biotinylated casein
Assay type: biochemical
Conditions: for Hydrolysis of biotin-casein by proteases / Sensitivity (amount of enzyme required to hydrolyse 10% of the biotinylated α-casein): optimal pH of each protease, 37° C., 30 minutes
Method: Preparation of biotinylated casein: 12 mg α-casein in 1 ml of 0.1 M pH 7.2 phosphate-buffer saline [PBS, NaCl, 9.00; Na2HPO4, 1.15; NaH2PO4, 0.23 (g/l)] was allowed to react with 3.6 mg NHS-biotin in 150 ul DMSO for 2 hours at room temperature with gently shaking.
Assay procedure for protease activity using biotinylated casein: The microtitre plates except for the first column of 8 wells were coated using biotinylated α-casein in PBS (0.13 ug/well/100 ul) and incubated for 2 hours at 37° C. The plates were washed three times with 0.1 M PBST (PBS with 0.05% Tween-20). Different concentrations of the enzyme solution as indicated in FIGS. 12-14 (100 ul) were diluted with the appropriate buffer (see Table 2). They were added in triplicate to the wells of a plate followed by incubating in a humid atmosphere at 37° C. for 30 minutes. The plate was washed three times using PBST to terminate the protease reaction. A streptavidin-alkaline phosphatase solution (100 ul/well, 1:1000 dilution in bicarbonate buffer pH 9.5) was added to all wells in the plate except for the first column of 8 wells (as blank) and the plate was incubated at room temperature for 30 minutes. The blank set of wells contained only PBS, no added enzyme and no coating with biotinylated casein. The reaction was stopped by emptying and washing the plate six times with PBST. The pNPP substrate (100 ul/well, 1 mg/ml in 10% diethanolamine buffer pH9.8) was added to each well of the plate followed by incubation at room temperature for about 20 minutes. The absorbency was then read at 405 nm using a microplate reader (Bio-Rad laboratories, Ltd, Mississauga, ON, Canada; model 450). The best sensitivity was obtained when the maximum absorbency was around 2.0 optical density units.

| Sensitivity (amount of enzyme required to hydrolyse 10% of the biotinylated α-casein) [ng/100 ul/sample] | Sensitivity: amount of enzyme required to produce a 10% decrease in maximal absorbency (0.5 hour hydrolysis) [ng/100 ul] | Molecule | Hydrolysis of biotin-casein by proteases |
| --- | --- | --- | --- |
| 4.4 | – | elastase | Yes |
| 641 | – | pepsin | Yes |
| 700 | 700 | papain: cysteine protease, EC 3.4.22.2 (protein, UniProt P00784 134-345, looked up) Papain: IPEYVDWRQKGAVTPVKNQGSCGSCWAFSAVVTIEGIIKIRTGNLNEYSEQELLDCDRRSYGCNGGYPWSALQLVAQYGIHYRNTYPYEGVQRYCRSREKGPYAAKTDGVRQVQPYNEGALLYSIANQPVSVVLEAAGKDFQLYRGGIFVGPCGNKVDHAVAAVGYGPNYILIKNSWGTGWGENGYIRIKRGTGNSYGVCGLYTSSFYPVKN | Yes |
| 25 | – | thermolysin: metaloprotease, EC 3.4.24.27 (protein, UniProt P00800 233-548, looked up) Thermolysin: ITGTSTVGVGRGVLGDQKNINTTYSTYYYLQDNTRGNGIFTYDAKYRTTLPGSLWADADNQFFASYDAPAVDAHYYAGVTYDYYKNVHNRLSYDGNNAAIRSSVHYSQGYNNAFWNGSQMVYGDGDGQTFIPLSGGIDVVAHELTHAVTDYTAGLIYQNESGAINEAISDIFGTLVEFYANKNPDWEIGEDVYTPGISGDSLRSMSDPAKYGDPDHYSKRYTGTQDNGGVHINSGIINKAAYLISQGGTHYGVSVVGIGRDKLGKIFYRALTQYLTPTSNFSQLRAAAVQSATDLYGSTSQEVASVKQAFDAVGVK | Yes |
